Laboratory results reported in patent CN110538321A (JIANGSU HENGRUI MEDICINE CO; SHANGHAI HENGRUI …, dated 2019).

How the values were obtained:
[1] = biological target: T1, 人CD47蛋白 (Leukocyte surface antigen CD47) (human, UniProt Q08722 19-141); test: Biacore (SPR), reference antibody of the comparison
T1 construct: extracellular domain; The assays say only 'CD47'; also called human CD47

[2] = biological target: T1, 人CD47蛋白 (Leukocyte surface antigen CD47); test: CD47 binding ELISA, hybridoma screening
[3] = biological target: T1, 人CD47蛋白 (Leukocyte surface antigen CD47); test: Biacore (SPR)

T1 sequence (Q08722 19-141 limits assumed): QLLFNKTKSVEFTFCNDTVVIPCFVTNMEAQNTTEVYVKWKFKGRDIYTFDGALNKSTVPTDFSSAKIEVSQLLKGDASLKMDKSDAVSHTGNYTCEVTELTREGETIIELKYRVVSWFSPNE

B1: 嵌合抗体ch-055 (antibody, V domains shown)
VH: QVLLQQSGPELVQPGASVKISCKASGYSFTSSYLHWVKQRPGQGLDWIGWIYPESGNTKYNERFKGKATLTADTSSSTAYMQLSSLTSEDSAVYYCSRRGDVFFAYWGQGTTLTVSS
VL: DIVMTQSPSYLTVTAGEKVTMSCKSSQSLLTSGKQKNYLTWYQQKPGQPPKLLIYWASTRESGVPERFRGSGSGTDFTLTISSVQAEDLAVYYCQNDYSYPLTFGAGTKLELN
notes: Chimeric antibody of clone 055
[1]
  binding result: binds

B2: 杂交瘤克隆055鼠源抗体 (antibody, V domains shown)
VH: QVLLQQSGPELVQPGASVKISCKASGYSFTSSYLHWVKQRPGQGLDWIGWIYPESGNTKYNERFKGKATLTADTSSSTAYMQLSSLTSEDSAVYYCSRRGDVFFAYWGQGTTLTVSS
VL: DIVMTQSPSYLTVTAGEKVTMSCKSSQSLLTSGKQKNYLTWYQQKPGQPPKLLIYWASTRESGVPERFRGSGSGTDFTLTISSVQAEDLAVYYCQNDYSYPLTFGAGTKLELN
notes: Mouse hybridoma antibody; also called 鼠源抗体055
[2]
  binding result: binds

B3: hu055-5 (antibody, human IgG4 S228P, kappa, F234A L235A, V domains shown)
VH: QVQLVQSGAEVKKPGASVKVSCKASGYTFTSSYLHWVRQAPGQRLDWIGWIYPESGNTKYNERFKGRATLTADTSASTAYMELSSLRSEDTAVYYCARRGDVFFAYWGQGTTVTVSS
VL: DIVMTQSPDSLAVSLGERATINCKSSQSLLTSGKQKNYLTWYQQKPGQPPKLLIYWASTRESGVPDRFSGSGSGTDFTLTISSLQAEDVAVYYCQNDYSYPLTFGQGTKLEIKR
[3]
  binding result: binds

B4: hu167-31 (antibody, V domains shown)
VH: QVQLVQSGAEVKKPGASVKVSCKASGYTFTSYWMHWVRQAPGQGLEWMGNIDPSDSETHYNQKFKDRVTMTRDTSISTAYMELSRLRSDDTAVYYCARWGYLGRSAMDYWGQGTTVTVSS
VL: DVQMTQSPSSLSASVGDRVTITCRTSKSISKFLAWYQQKPGKAPKLLIYSGSTLQSGVPSRFSGSGSGTDFTLTISSLQPEDFATYYCQQHNEYPWTFGGGTKVEIK
[3]
  KD ratio relative to hu167-4: 1.3

B5: hu167-32 (antibody, V domains shown)
VH: QVQLVQSGAEVKKPGASVKVSCKASGYTFTSYWMHWVRQAPGQGLEWMGNIDPSDSETHYNQKFKDRVTMTRDTSISTAYMELSRLRSDDTAVYYCARWGYLGRSAMDYWGQGTTVTVSS
VL: DIQITQSPSSLSASVGDRVTITCRTSKSISKFLAWYQQKPGKAPKLLIYSGSTLQSGVPSRFSGSGSGTDFTLTISSLQPEDFATYYCQQHNEYPWTFGGGTKVEIK
[3]
  KD ratio relative to hu167-4: 1.2

B6: hu167-33 (antibody, human IgG4 S228P, kappa, F234A L235A, V domains shown)
VH: QVQLVQSGAEVKKPGASVKVSCKASGYTFTSYWMHWVRQAPGQGLEWMGNIDPSDSETHYNQKFKDRVTMTRDTSISTAYMELSRLRSDDTAVYYCARWGYLGRSAMDYWGQGTTVTVSS
VL: DVQITQSPSSLSASVGDRVTITCRTSKSISKFLAWYQQKPGKAPKLLIYSGSTLQSGVPSRFSGSGSGTDFTLTISSLQPEDFATYYCQQHNEYPWTFGGGTKVEIKR
[3]
  KD ratio relative to hu167-4: 0.98

B7: 杂交瘤克隆167鼠源抗体 (antibody, V domains shown)
VH: QVQLQQPGAELVRPGSSVKLSCKASGYTFTSYWMHWVKQRPIQGLEWVGNIDPSDSETHYNQKFKDKATLTVDKSSSTAYMQLSSLTSEDSAVYYCARWGYLGRSAMDYWGQGTSVTVSS
VL: DVQITQSPSYLAASPGETITINCRTSKSISKFLAWYQEKPGKTHKLLIYSGSTLQSGIPSRFSGSGSGTDFTLTISSLEPEDFAMYYCQQHNEYPWTFGGGTKLEIK
notes: Mouse hybridoma antibody; also called 鼠源抗体167
[2]
  binding result: binds
